Measured values taken from patent US20190359666A1 (ACADEMIA SINICA, published 2019).
Each block holds one binder with its values, some of them ahead of it.

Tests used:
bFGF [1] = target: T1, bFGF (UniProt P09038 143-288, limits assumed); assay: Biacore SPR, growth factor immobilised; growth factor immobilised
T1 construct: also called basic fibroblast growth factor

IGF-1 [2] = target: T2, IGF-1 (UniProt P05019 49-118); assay: biotinylated IGF-1 ELISA on Fc-captured chimera, after overnight in PBS at 37 C, against the 4 C PBS control; experiment 3-192
T2 construct: Biotinylated IGF-1 is written as the same molecule; also called biotinylated IGF-1; IGF-1-bio
Procedure: (§1) Plates were coated with goat anti-human Fc antibody, blocked and then incubated with chimera as in the Fc ELISA. Biotinylated IGF-1 (GroPep) or VEGF-Biotin (R&D Systems VEGF biotinylated with sulfo-NHS-LC-biotin as per instructions (Pierce) was added for 2 hours followed by streptavidin-HRP (Jackson Immunoresearch) for 30 minutes. Chromogenic development with tetramethyl benzidine was performed as described above.
(§2) To test the stability of the present chimeras, some purified chimeras (see, Table 4) were incubated with PBS or a conditioned medium from the MCF-7 cell line overnight at 37° C. and PBS overnight at 4° C. The IGF-1 binding and VEGF binding were measured using the biotinylated IGF-1 and VEGF.

IGF-1 [3] = target: T2, IGF-1; assay: biotinylated IGF-1 ELISA on Fc-captured chimera, after overnight in PBS at 37 C, against the 4 C PBS control; experiment 4-81
Procedure: as §1, §2

IGF-1 [4] = target: T2, IGF-1; assay: biotinylated IGF-1 ELISA on Fc-captured chimera, 4 C PBS control (the reference); experiment 4-81
Procedure: as §1, §2

bFGF [5] = target: T1, bFGF; assay: Biacore SPR, immobilised bFGF; experiment 4-79
Procedure: (§3) Biacore binding was performed at David Myszka's laboratory at the University of Utah or at the Genomic Research Center at Academia Sinica. Surfaces of binding protein chimera were made via chemical immobilization on a CM4 chip using standard amine coupling chemistry. […] Excess surface carboxyl activated sites on all four flow cells was blocked using the doubly positively charged species ethylenediamine. Binding experiments (but not immobilizations) in HBS-P (10 mM HEPES pH 7.4, 150 mM NaCl, 0.05% P20), The HBS-P was supplemented with BSA at 0.2 mg/mL, or HBS-P was supplemented with 500 mM NaCl (650 mM NaCl, final concentration). Analytes were also reconstituted in the corresponding buffer. All experiments were performed at 25° C. 1/150 dilutions of phosphoric acid were used to regenerate IGFBP3-Fc surfaces and a sequence of 3 M MgCl₂ followed by 5 M GuCl was used to regenerate surfaces immobilized with growth factor. Dissociation constants reported below used immobilized binding protein unless noted. Differences between binding constants may be expected between growth factor immobilization and chimera immobilization.

IGF-2 = IGF-2 (UniProt P01344 25-91); assay: Biacore SPR, chimera immobilised
Procedure: as §3
(§4) We selected his3t33Fc and chimera A for further analysis and examined their growth factor binding by Biacore and ELISA competition assays.

TGF-α = TGF-α (UniProt P01135 40-89); assay: Biacore SPR, chimera immobilised
Procedure: as §3, §4

VEGF [6] = target: T3, VEGF (UniProt P15692-4 27-191); assay: Biacore SPR, chimera immobilised
Procedure: as §3, §4

mIGF-1 = mIGF-1 (UniProt P05017 49-118); assay: Biacore SPR, chimera immobilised
Procedure: as §3, §4

nrgbx [7] = target: T4, nrgbx (UniProt Q02297-6 2-246, limits assumed); assay: Biacore SPR, chimera immobilised
T4 construct: also called neuregulin
T4 sequence (looked up): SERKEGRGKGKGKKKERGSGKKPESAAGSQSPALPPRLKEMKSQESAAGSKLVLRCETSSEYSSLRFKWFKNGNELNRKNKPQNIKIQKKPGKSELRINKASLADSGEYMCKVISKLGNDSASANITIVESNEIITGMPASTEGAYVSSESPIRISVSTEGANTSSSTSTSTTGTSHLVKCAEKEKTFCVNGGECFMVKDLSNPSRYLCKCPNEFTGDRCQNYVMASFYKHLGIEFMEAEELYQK
Procedure: as §3, §4

mIGF-2 = mIGF-2 (UniProt P09535 25-91); assay: Biacore SPR, chimera immobilised
Procedure: as §3, §4

IGF-1 [8] = target: T2, IGF-1; assay: Biacore SPR, chimera immobilised
Procedure: as §3, §4

VEGF-B = target: T5, VEGF-B (UniProt P49765-2 22-188); assay: Biacore SPR, chimera immobilised
T5 sequence (looked up): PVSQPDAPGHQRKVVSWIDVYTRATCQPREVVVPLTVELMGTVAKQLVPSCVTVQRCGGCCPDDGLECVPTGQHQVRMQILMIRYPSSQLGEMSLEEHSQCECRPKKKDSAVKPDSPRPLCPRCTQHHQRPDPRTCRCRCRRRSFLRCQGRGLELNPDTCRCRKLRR
Procedure: as §3, §4

IGF-1 [9] = target: T2, IGF-1; assay: biotinylated IGF-1 ELISA on Fc-captured chimera, 4 C PBS control (the reference); experiment 3-192
Procedure: as §1, §2

IGF-1 [10] = target: T2, IGF-1; assay: biotinylated IGF-1 ELISA on Fc-captured chimera, after overnight in MCF-7 conditioned medium at 37 C, against the 4 C PBS control; experiment 4-81
Procedure: as §1, §2

IGF-1 [11] = target: T2, IGF-1; assay: biotinylated IGF-1 ELISA on Fc-captured chimera, after overnight in MCF-7 conditioned medium at 37 C, against the 4 C PBS control; experiment 3-192
Procedure: as §1, §2

IGF-1 [12] = target: T2, IGF-1; assay: Biacore SPR; experiment 4-79
Procedure: as §3

HGF = target: T6, HGF (UniProt P14210 32-728); assay: Biacore SPR, growth factor immobilised
T6 construct: also called hepatocyte growth factor
Procedure: as §3, §4

IGF-1 [13] = target: T2, IGF-1; assay: SPR, without VEGF; absence of VEGF
Procedure: as §3
(§5) To further examine the nature of the VEGF and IGF binding to chimera A, simultaneous binding was examined using the surface plasmon resonance.

PIGF = target: T7, PIGF (UniProt P49763-2 21-149); assay: Biacore SPR, chimera immobilised
T7 construct: also called placental growth factor
T7 sequence (looked up): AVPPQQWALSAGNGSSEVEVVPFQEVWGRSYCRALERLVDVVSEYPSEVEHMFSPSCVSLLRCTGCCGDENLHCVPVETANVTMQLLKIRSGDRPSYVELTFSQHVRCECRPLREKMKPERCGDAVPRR
Procedure: as §3, §4

IGF-1 [14] = target: T2, IGF-1; assay: SPR, in the presence of 3 nM VEGF; presence of 3 nM VEGF
Procedure: as §3, §5

VEGF [15] = target: T3, VEGF; assay: Biacore SPR, chimera immobilised; footnote: the kd is very low and difficult to measure
Procedure: as §3, §4

nrgbx [16] = target: T4, nrgbx; assay: cell-based or functional assay
bFGF [17] = target: T1, bFGF; assay: Biacore SPR, growth factor immobilised
Procedure: as §3, §4

T2 sequence (P05019 49-118 limits assumed): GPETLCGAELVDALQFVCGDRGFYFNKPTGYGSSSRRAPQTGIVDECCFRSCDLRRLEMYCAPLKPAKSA
T1 sequence (P09038 143-288 limits assumed): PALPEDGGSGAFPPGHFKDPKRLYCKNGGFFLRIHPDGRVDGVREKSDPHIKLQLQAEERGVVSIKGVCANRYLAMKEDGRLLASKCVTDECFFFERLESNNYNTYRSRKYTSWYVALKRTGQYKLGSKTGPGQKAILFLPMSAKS
T6 sequence (P14210 32-728 limits assumed): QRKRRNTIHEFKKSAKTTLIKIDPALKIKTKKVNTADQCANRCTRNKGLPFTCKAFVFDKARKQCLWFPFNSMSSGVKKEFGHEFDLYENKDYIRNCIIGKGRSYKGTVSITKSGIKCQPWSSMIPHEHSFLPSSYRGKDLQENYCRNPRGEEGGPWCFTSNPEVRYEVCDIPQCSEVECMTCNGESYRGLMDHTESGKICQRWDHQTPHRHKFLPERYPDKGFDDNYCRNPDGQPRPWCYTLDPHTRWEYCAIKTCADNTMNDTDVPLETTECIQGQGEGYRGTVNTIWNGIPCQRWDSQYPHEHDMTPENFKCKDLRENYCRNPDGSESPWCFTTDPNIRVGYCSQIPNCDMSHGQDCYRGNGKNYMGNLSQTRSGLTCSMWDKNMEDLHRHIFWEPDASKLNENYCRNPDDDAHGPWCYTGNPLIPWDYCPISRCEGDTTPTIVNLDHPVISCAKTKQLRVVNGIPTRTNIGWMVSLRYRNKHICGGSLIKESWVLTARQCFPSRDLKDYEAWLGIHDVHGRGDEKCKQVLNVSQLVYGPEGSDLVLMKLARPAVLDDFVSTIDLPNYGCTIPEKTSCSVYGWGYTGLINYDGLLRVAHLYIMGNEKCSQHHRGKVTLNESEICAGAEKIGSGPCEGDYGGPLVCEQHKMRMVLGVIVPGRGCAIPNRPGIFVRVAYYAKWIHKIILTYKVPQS
T3 sequence (P15692 other isoform, or with tags, fused parts or gaps limits assumed): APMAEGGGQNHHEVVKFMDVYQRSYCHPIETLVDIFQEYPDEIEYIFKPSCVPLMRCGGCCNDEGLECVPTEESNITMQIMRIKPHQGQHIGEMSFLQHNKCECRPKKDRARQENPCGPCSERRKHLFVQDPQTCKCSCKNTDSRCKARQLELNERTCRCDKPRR
Chain of IGF-2 (P01344 25-91 limits assumed): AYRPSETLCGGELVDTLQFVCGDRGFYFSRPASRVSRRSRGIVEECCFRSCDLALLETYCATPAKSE
Chain of mIGF-1 (P05017 49-118 limits assumed): as the sequence (P05019 49-118 limits assumed) above, with D20P, S35I, A67T, S69A counted along it
Chain of TGF-α (P01135 40-89 limits assumed): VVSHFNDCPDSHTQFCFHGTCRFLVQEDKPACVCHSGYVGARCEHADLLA
Chain of mIGF-2 (P09535 25-91 limits assumed): as the sequence (P01344 25-91 limits assumed) above, with R3G, S5G, G22S, A32S, V35A, S36N counted along it

Kd (bFGF [1]): 13 nM | IGF-1 binding remaining over controls (IGF-1 [2]): 99% | IGF-1 binding remaining over controls (IGF-1 [3]): 101% | IGF-1 binding remaining over controls (IGF-1 [4]): 100% | Kd (bFGF [5]): 13.3 nM | Kd (IGF-2): 0.174 nM | binding result (TGF-α): no binding | binding result (VEGF [6]): no binding | Kd (mIGF-1): 0.21 nM | Kd (nrgbx [7]): 5.98 nM | Kd (mIGF-2): 0.14 nM | Kd (IGF-1 [8]): 0.161 nM | Kd (VEGF-B): 3 nM | IGF-1 binding remaining over controls (IGF-1 [9]): 100% | IGF-1 binding remaining over controls (IGF-1 [10]): 51% | IGF-1 binding remaining over controls (IGF-1 [11]): 54% | Kd (IGF-1 [12]): 0.575 nM | Kd (HGF): 0.608 nM
B1: IGFBP3-Fc-1 (Fc fusion)
chain: GASSAGLGPVVRCEPCDARALAQCAPPPAVCAELVREPGCGCCLTCALSEGQPCGIYTERCGSGLRCQPSPDEARPLQALLDGRGLCVNASAVSKGHAKDSQRYKVDYESQSTDTQNFSSESKRETEYGPCRREMEDTLNHLKFLNVLSPRGVHIPNCDKKGFYKKKQCRPSKGRKRGFCWCVDKYGQPLPGYTTKGKEDVHCYSMQSKVECPPCPAPPVAGPSVFLFPPKPKDQLMISRTPEVTCVVVDVSHEDPEVKFNWYVDGVEVHNAKTKPREEQYNSTYRVVSVLTVLHQDWLNGKEYKCKVSNKGLPSSIEKTISKAKGQPREPQVYTLPPSREEMTKNQVSLTCLVKGFYPSDIAVEWESNGQPENNYKTTPPVLDSDGSFFLYSKLTVDKSRWQQGNVFSCSVMHEGLHNHYTQKSLSLSPGK
notes: IGFBP3 with IGFBP3 linker deletion 1 (55 amino acids deleted from the linker region), fused to Fc; dimeric; also called h3t33fc; his3t33fc

IGF-1 binding remaining over controls (IGF-1 [2]): 94% | Kd (IGF-1 [13]): 0.4 nM | Kd (IGF-2): 0.0389 nM | Kd (TGF-α): 9250 nM | Kd (mIGF-1): 0.137 nM | Kd (nrgbx [7]): 4.88 nM | Kd (mIGF-2): 0.0513 nM | Kd (IGF-1 [8]): 0.0245 nM | Kd (PIGF): 0.999 nM | Kd (VEGF-B): 0.5 nM | Kd (IGF-1 [14]): 0.2 nM | Kd (VEGF [15]): 0.0038 nM | IGF-1 binding remaining over controls (IGF-1 [9]): 100% | IC50 in inhibiting neuregulin-induced proliferation (nrgbx [16]): 47 nM | IGF-1 binding remaining over controls (IGF-1 [11]): 77% | Kd (bFGF [17]): 1.92 nM | Kd (HGF): 0.0218 nM
B2: IGFBP3-Fc-VEGF-1 (Fc fusion)
chain: GASSAGLGPVVRCEPCDARALAQCAPPPAVCAELVREPGCGCCLTCALSEGQPCGIYTERCGSGLRCQPSPDEARPLQALLDGRGLCVNASAVSKGHAKDSQRYKVDYESQSTDTQNFSSESKRETEYGPCRREMEDTLNHLKFLNVLSPRGVHIPNCDKKGFYKKKQCRPSKGRKRGFCWCVDKYGQPLPGYTTKGKEDVHCYSMQSKAPPAPGNASESEEDRSAGIYIFISDTGRPFVEMYSEIPEIIHMTEGRELVIPCRVTSPNITVTLKKFPLDTLIPDGKRIIWDSRKGFIISNATYKEIGLLTCEATVNGHLYKTNYLTHRQGYRIYDVVLSPSHGIELSVGEKLVLNCTARTELNVGIDFNWEYPSSKHQHKKLVNRDLKTQSGSEMKKFLSTLTIDGVTRSDQGLYTCAASSGLMTKKNSTFVRVHEKVECPPCPAPPVAGPSVFLFPPKPKDQLMISRTPEVTCVVVDVSHEDPEVKFNWYVDGVEVHNAKTKPREEQYNSTYRVVSVLTVLHQDWLNGKEYKCKVSNKGLPSSIEKTISKAKGQPREPQVYTLPPSREEMTKNQVSLTCLVKGFYPSDIAVEWESNGQPENNYKTTPPVLDSDGSFFLYSKLTVDKSRWQQGNVFSCSVMHEGLHNHYTQKSLSLSPGK
notes: IGFBP3 with linker deletion 1 - gly 3 linker - v1v2 (VEGFR1 domain 2, VEGFR2 domain 3) - Fc; dimeric; also called chimera A; chimeraA
